This is an account of results in paper PMC7797001 (Molecular cell, 2020).

In data set [1] the target is SP-BM generated from human proSP-B by proteinase K (human) (UniProt P07988). The data set can be described thus: reducing and non-reducing SDS-PAGE.
The data set “non-reducing SDS-PAGE” concerns the molecule itself. The data set can be described thus: non-reducing SDS-PAGE.

In the case of “SP-BM generated from human proSP-B by proteinase K (from UniProt P07988 201-279) (domain or fragment)”, the stoichiometry N (usually the number of molecules, sites or subunits per partner or assembly) in data set [1] came to 2.

B1: SP-BM purified from bovine lungs (natural protein, UniProt P15781 188-266, looked up)
chain: FPIPIPYCWLCRTLIKRIQAVIPKGVLAMTVAQVCHVVPLLVGGICQCLVERYSVILLDTLLGRMLPQLVCGLVLRCSS
As for B1, the “stoichiometry N” value in the data set “non-reducing SDS-PAGE” turned out to be 2.
